Target: the molecule itself
Assay: crystal structure

B1: β-barrel domain of E. coli BamA (residues 426–810) (domain or fragment)
chain: not shown
modifications: biotin (EZ-Link NHS-PEG4-Biotin, chemical) in the SPR experiment only
binding result: binds
